Measurements: patent US20250051476A1 (ABDERA THERAPEUTICS, published 2025)
Numbering of substitutions follows the chain as printed.

T1: human DLL3 (human, UniProt Q9NYJ7 27-492, limits assumed)
T1 construct: also called hDLL3; Delta-like protein 3
T1 sequence (looked up): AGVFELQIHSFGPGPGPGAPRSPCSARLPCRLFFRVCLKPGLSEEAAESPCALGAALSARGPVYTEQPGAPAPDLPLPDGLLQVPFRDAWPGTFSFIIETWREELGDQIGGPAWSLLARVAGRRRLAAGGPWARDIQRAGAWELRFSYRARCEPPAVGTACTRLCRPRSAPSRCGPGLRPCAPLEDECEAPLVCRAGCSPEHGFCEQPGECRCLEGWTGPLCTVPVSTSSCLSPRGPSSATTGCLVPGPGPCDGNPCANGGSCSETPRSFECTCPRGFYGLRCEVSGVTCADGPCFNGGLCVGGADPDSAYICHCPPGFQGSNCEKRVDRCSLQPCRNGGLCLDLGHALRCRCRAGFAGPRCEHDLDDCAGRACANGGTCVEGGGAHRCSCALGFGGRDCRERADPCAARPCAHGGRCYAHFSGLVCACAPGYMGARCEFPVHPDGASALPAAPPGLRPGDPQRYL

T2: mouse DLL3 (mouse, UniProt O88516 25-477, limits assumed)
T2 construct: also called mDLL3; murine DLL3
T2 sequence (looked up): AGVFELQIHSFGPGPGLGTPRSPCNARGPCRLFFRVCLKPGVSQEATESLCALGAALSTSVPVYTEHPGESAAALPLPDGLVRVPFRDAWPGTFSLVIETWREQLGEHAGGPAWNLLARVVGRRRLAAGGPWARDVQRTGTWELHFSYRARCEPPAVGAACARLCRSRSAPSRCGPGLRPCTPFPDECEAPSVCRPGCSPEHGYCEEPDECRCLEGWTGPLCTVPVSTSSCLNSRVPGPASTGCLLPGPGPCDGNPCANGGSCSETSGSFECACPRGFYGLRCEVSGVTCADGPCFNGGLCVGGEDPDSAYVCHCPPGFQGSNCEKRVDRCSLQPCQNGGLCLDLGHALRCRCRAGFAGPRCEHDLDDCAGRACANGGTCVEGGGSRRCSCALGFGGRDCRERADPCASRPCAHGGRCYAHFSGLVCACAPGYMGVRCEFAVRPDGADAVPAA

T3: DLL3 on cells (SHP-77, NCI-H82, HEK-DLL3, membrane proteome array cells) (human, UniProt Q9NYJ7 27-618)
T3 construct: whole, on cells; also called hDLL3
T3 sequence (looked up): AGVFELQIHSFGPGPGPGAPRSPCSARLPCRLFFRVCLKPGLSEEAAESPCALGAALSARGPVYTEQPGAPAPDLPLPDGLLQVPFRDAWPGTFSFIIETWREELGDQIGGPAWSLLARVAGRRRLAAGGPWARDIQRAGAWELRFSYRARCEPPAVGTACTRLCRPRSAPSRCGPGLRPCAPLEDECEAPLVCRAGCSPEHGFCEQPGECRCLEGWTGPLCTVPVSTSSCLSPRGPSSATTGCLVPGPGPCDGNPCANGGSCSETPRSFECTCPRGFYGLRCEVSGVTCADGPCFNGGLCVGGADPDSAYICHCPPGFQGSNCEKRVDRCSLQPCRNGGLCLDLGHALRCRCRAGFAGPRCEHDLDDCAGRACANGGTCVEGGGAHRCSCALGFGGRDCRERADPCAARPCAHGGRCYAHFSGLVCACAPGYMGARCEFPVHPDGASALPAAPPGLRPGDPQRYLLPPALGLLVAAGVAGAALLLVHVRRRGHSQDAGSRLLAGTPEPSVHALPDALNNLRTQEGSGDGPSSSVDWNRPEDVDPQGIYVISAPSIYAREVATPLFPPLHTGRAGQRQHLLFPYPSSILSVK

B1: 186_zu3 (Fc fusion)
chain: QVQLVESGGGLVQPGGSLRLSCAASGFDFSTYTVNWYRQAPGQGLEKVARISSTGTTTNYANSAKGRFTISRDNSKNTLYLQMNSLRAEDTAVYYCAAERFDSNYWGQGTLVTVSSEPKSSDKTHTCPPCPAPEAEGAPSVFLFPPKPKDTLMISRTPEVTCVVVDVSHEDPEVKFNWYVDGVEVHNAKTKPREEQYNSTYRVVSVLTVLHQDWLNGKEYKCKVSNKALPSSIEKTISKAKGQPREPQVYTLPPSREEMTKNQVSLTCLVKGFYPSDIAVEWESNGQPENNYKTTPPVLDSDGSFFLYSKLTVDKSRWQQGNVFSCSVMHEALHNQYTQKSLSLSPG
notes: Humanized VHH-Fc
B2: 186_zu4 (Fc fusion)
chain: B1 chain with G44E, L45R
notes: Humanized VHH-Fc
B3: 186_zu5 (Fc fusion)
chain: B1 chain with Q43K, G44E, L45R
notes: Humanized VHH-Fc
B4: 24_zu4 (Fc fusion)
chain: QVQLVESGGGLVQPGGSLRLSCAASGFTFSSYRINWYRQAPGQGRELVASITDTGSTNYADSVKGRFTISRDNSKNTLYLQMNSLRAEDTAVYYCAAPTIAAYWGQGTLVTVSSEPKSSDKTHTCPPCPAPEAEGAPSVFLFPPKPKDTLMISRTPEVTCVVVDVSHEDPEVKFNWYVDGVEVHNAKTKPREEQYNSTYRVVSVLTVLHQDWLNGKEYKCKVSNKALPSSIEKTISKAKGQPREPQVYTLPPSREEMTKNQVSLTCLVKGFYPSDIAVEWESNGQPENNYKTTPPVLDSDGSFFLYSKLTVDKSRWQQGNVFSCSVMHEALHNQYTQKSLSLSPG
notes: Humanized VHH-Fc
B5: 24_zu3 (Fc fusion)
chain: B4 chain with R45L
notes: Humanized VHH-Fc
B6: 24_zu5 (Fc fusion)
chain: B4 chain with A40P, Q43K, A49G
notes: Humanized VHH-Fc
B7: 24_zu1 (Fc fusion)
chain: B4 chain with Y37F, R45L, L47A
notes: Humanized VHH-Fc
B8: 24_zu2 (Fc fusion)
chain: B4 chain with Y37F, R45L
notes: Humanized VHH-Fc
B9: 107_zu4 (Fc fusion)
chain: QVQLVESGGGLVQPGGSLRLSCAASDRTFSSYAVGWFRQAPGQEREFVAAISWNGGRTLYTDSVTGRFTISRDNSKNTLYLQMNSLRAEDTAVYYCAARPAAPTRRLEYDYWGQGTLVTVSSEPKSSDKTHTCPPCPAPEAEGAPSVFLFPPKPKDTLMISRTPEVTCVVVDVSHEDPEVKFNWYVDGVEVHNAKTKPREEQYNSTYRVVSVLTVLHQDWLNGKEYKCKVSNKALPSSIEKTISKAKGQPREPQVYTLPPSREEMTKNQVSLTCLVKGFYPSDIAVEWESNGQPENNYKTTPPVLDSDGSFFLYSKLTVDKSRWQQGNVFSCSVMHEALHNQYTQKSLSLSPG
notes: Humanized VHH-Fc
B10: 107_zu3 (Fc fusion)
chain: B9 chain with E44G
notes: Humanized VHH-Fc
B11: 107_zu1 (Fc fusion)
chain: B9 chain with E44G, R45L, F47A
notes: Humanized VHH-Fc
B12: 107_zu5 (Fc fusion)
chain: B9 chain with Q43K
notes: Humanized VHH-Fc
B13: 100_zu4 (Fc fusion)
chain: QVQLVESGGGLVQPGGSLRLSCAASGIVFNSDVMGWYRQAPGQPRELVATITGGGSTNYATSVKGRFTISRDNSKNTLYLQMNSLRAEDTAVYYCAARRGDSMLAFWGQGTLVTVSSEPKSSDKTHTCPPCPAPEAEGAPSVFLFPPKPKDTLMISRTPEVTCVVVDVSHEDPEVKFNWYVDGVEVHNAKTKPREEQYNSTYRVVSVLTVLHQDWLNGKEYKCKVSNKALPSSIEKTISKAKGQPREPQVYTLPPSREEMTKNQVSLTCLVKGFYPSDIAVEWESNGQPENNYKTTPPVLDSDGSFFLYSKLTVDKSRWQQGNVFSCSVMHEALHNQYTQKSLSLSPG
notes: Humanized VHH-Fc
B14: 100_zu5 (Fc fusion)
chain: B13 chain with A40V, Q43K
notes: Humanized VHH-Fc
B15: 100_zu2 (Fc fusion)
chain: B13 chain with Y37F, P44G, R45L
notes: Humanized VHH-Fc
B16: 100_zu3 (Fc fusion)
chain: B13 chain with P44G, R45L
notes: Humanized VHH-Fc
B17: 126_zu4 (Fc fusion)
chain: QVQLVESGGGLVQPGGSLRLSCAASGITFSMYSMSWYRQAPGQQRELVAATTTFGSTNYADSVKGRFTISRDNSKNTLYLQMNSLRAEDTAVYYCAARFTSEEYWGQGTLVTVSSEPKSSDKTHTCPPCPAPEAEGAPSVFLFPPKPKDTLMISRTPEVTCVVVDVSHEDPEVKFNWYVDGVEVHNAKTKPREEQYNSTYRVVSVLTVLHQDWLNGKEYKCKVSNKALPSSIEKTISKAKGQPREPQVYTLPPSREEMTKNQVSLTCLVKGFYPSDIAVEWESNGQPENNYKTTPPVLDSDGSFFLYSKLTVDKSRWQQGNVFSCSVMHEALHNQYTQKSLSLSPG
notes: Humanized VHH-Fc
B18: 126_zu5 (Fc fusion)
chain: B17 chain with A40P, Q43K
notes: Humanized VHH-Fc
B19: 126_zu3 (Fc fusion)
chain: B17 chain with Q44G, R45L
notes: Humanized VHH-Fc

These binders were tested against T1, human DLL3 (assay: ELISA).

| Binder | binding result |
| --- | --- |
| B1 | binds |
| B2 | binds |
| B3 | binds |
| B4 | no binding |
| B5 | no binding |
| B6 | no binding |
| B7 | binds |
| B8 | no binding |
| B9 | binds |
| B10 | binds |
| B11 | binds |
| B12 | binds |
| B13 | no binding |
| B14 | no binding |
| B15 | no binding |
| B16 | no binding |

The binders below were run against T2, mouse DLL3 (assay: ELISA).

| Binder | binding result |
| --- | --- |
| B1 | no binding |
| B2 | no binding |
| B3 | no binding |
| B17 | no binding |
| B18 | no binding |
| B19 | no binding |
| B4 | no binding |
| B5 | no binding |
| B6 | no binding |
| B8 | no binding |
| B13 | no binding |
| B14 | no binding |
| B15 | no binding |
| B16 | no binding |

What follows are binders tested against T3, DLL3 on cells (SHP-77, NCI-H82, …) (assay: flow cytometry on SHP-77 cells, Geomeans RL1-H).

| Binder | EC50 (read off the curve) | binding result |
| --- | --- | --- |
| B17 | ~0.1 nM |  |
| B18 | ~0.1 nM |  |
| B19 | ~0.1 nM |  |
| B9 |  | binds |
| B10 |  | binds |
| B12 |  | binds |
